In publication PMC12000455:

Molecular target: Slik coiled-coil C-terminal domain (Slik^CCD) (Drosophila)
Assay: SEC; purified Slik^CCD on a Superdex 75 10/300 column in 20 mM Tris-HCl pH 7.5, 150 mM NaCl, 2 mM DTT; elution peak at 95.45 kDa

Work on “Slik coiled-coil C-terminal domain (Slik^CCD) (domain or fragment)” yielded a stoichiometry N of 2.
